{"source": "patent US9951306B2", "about": "“Catalase in growth media” (EUCODIS BIOSCIENCE GMBH, priority 2012, dated 2018)", "molecules": {"B1": {"name": "Catalase from bovine liver: Catalase prepared from commercial product C9322 (Sigma), dissolved in 0.1 M potassium phosphate pH 7.0; comparator (protein, UniProt P00432 2-527, looked up)", "Catalase": "ADNRDPASDQMKHWKEQRAAQKPDVLTTGGGNPVGDKLNSLTVGPRGPLLVQDVVFTDEMAHFDRERIPERVVHAKGAGAFGYFEVTHDITRYSKAKVFEHIGKRTPIAVRFSTVAGESGSADTVRDPRGFAVKFYTEDGNWDLVGNNTPIFFIRDALLFPSFIHSQKRNPQTHLKDPDMVWDFWSLRPESLHQVSFLFSDRGIPDGHRHMNGYGSHTFKLVNANGEAVYCKFHYKTDQGIKNLSVEDAARLAHEDPDYGLRDLFNAIATGNYPSWTLYIQVMTFSEAEIFPFNPFDLTKVWPHGDYPLIPVGKLVLNRNPVNYFAEVEQLAFDPSNMPPGIEPSPDKMLQGRLFAYPDTHRHRLGPNYLQIPVNCPYRARVANYQRDGPMCMMDNQGGAPNYYPNSFSAPEHQPSALEHRTHFSGDVQRFNSANDDNVTQVRTFYLKVLNEEQRKRLCENIAGHLKDAQLFIQKKAVKNFSDVHPEYGSRIQALLDKYNEEKPKNAVHTYVQHGSHLSAREKANL"}}, "key": {"[1]": {"system": "Bacillus subtilis ATCC 6633", "assay": "Agar diffusion test: inhibition by hydrogen peroxide on TSA-LT agar plates with additives", "format": "cell-based", "conditions": "10 μl on paper disc; for Inhibition on gamma-irradiated agar plates: gamma-irradiated 20.5 kGy; for Inhibition on agar plates: not irradiated"}, "[2]": {"system": "Bacillus subtilis ATCC 6633", "assay": "Growth promotion test: colonies on TSA-LT agar plates treated with hydrogen peroxide", "format": "cell-based", "conditions": "for Colonies on agar: no catalase, hydrogen peroxide as in Example 3; for Colonies on gamma-irradiated agar / Colonies on agar plates: 300 μl 1% hydrogen peroxide (100 ppm in medium); for Colonies on gamma-irradiated agar: gamma-irradiated 20.5 kGy; for Colonies on agar plates: not irradiated"}, "[3]": {"conditions": "8000 international units of catalase per plate; cited from earlier work"}, "[4]": {"conditions": "sodium pyruvate 2.00 g/l together with sodium thiosulfate 0.05 g/l, 2% hydrogen peroxide"}, "[5]": {"conditions": "sodium pyruvate 2.00 g/l together with sodium thiosulfate 0.05 g/l, 5% hydrogen peroxide"}, "[6]": {"conditions": "sodium pyruvate 2.00 g/l together with sodium thiosulfate 0.05 g/l, 8% hydrogen peroxide"}, "[7]": {"conditions": "sodium pyruvate 2.00 g/l together with sodium thiosulfate 0.05 g/l, 10% hydrogen peroxide"}, "[8]": {"conditions": "sodium pyruvate 2.00 g/l together with sodium thiosulfate 0.05 g/l"}, "[9]": {"conditions": "80 U/plate, 2% hydrogen peroxide"}, "[10]": {"conditions": "80 U/plate, 5% hydrogen peroxide"}, "[11]": {"conditions": "80 U/plate, 8% hydrogen peroxide"}, "[12]": {"conditions": "80 U/plate, 10% hydrogen peroxide"}, "[13]": {"conditions": "150 U/plate, 2% hydrogen peroxide"}, "[14]": {"conditions": "150 U/plate, 5% hydrogen peroxide"}, "[15]": {"conditions": "150 U/plate, 8% hydrogen peroxide"}, "[16]": {"conditions": "150 U/plate, 10% hydrogen peroxide"}, "[17]": {"conditions": "300 U/plate, 2% hydrogen peroxide"}, "[18]": {"conditions": "300 U/plate, 5% hydrogen peroxide"}, "[19]": {"conditions": "300 U/plate, 8% hydrogen peroxide"}, "[20]": {"conditions": "300 U/plate, 10% hydrogen peroxide"}}}
{"molecule": "CC(=O)C(=O)[O-].[Na+]", "note": "[Sodium pyruvate, reference compound]", "values": [{"measurement": "Inhibition on gamma-irradiated agar plates", "setting": "[1]; [4]", "value": 0, "unit": "mm"}, {"measurement": "Inhibition on agar plates", "setting": "[1]; [4]", "value": 0, "unit": "mm"}, {"measurement": "Inhibition on gamma-irradiated agar plates", "setting": "[1]; [5]", "value": 1, "unit": "mm"}, {"measurement": "Inhibition on agar plates", "setting": "[1]; [5]", "value": 1, "unit": "mm"}, {"measurement": "Inhibition on gamma-irradiated agar plates", "setting": "[1]; [6]", "value": 2, "unit": "mm"}, {"measurement": "Inhibition on agar plates", "setting": "[1]; [6]", "value": 2, "unit": "mm"}, {"measurement": "Inhibition on gamma-irradiated agar plates", "setting": "[1]; [7]", "value": 3, "unit": "mm"}, {"measurement": "Inhibition on agar plates", "setting": "[1]; [7]", "value": 2.5, "unit": "mm"}, {"measurement": "growth in agar plates with hydrogen peroxide", "setting": "[2]; 0.2 g/l sodium pyruvate and 0.005 g/l sodium thiosulfate without catalase", "value": "did not support growth"}, {"measurement": "Colonies on agar", "setting": "[2]; sodium pyruvate 0.20 g/l with sodium thiosulfate 0.005 g/l", "value": 0, "unit": "CFU"}, {"measurement": "Colonies on gamma-irradiated agar", "setting": "[2]; [8]", "value": 229, "unit": "CFU"}, {"measurement": "Colonies on agar plates", "setting": "[2]; [8]", "value": 161, "unit": "CFU"}, {"measurement": "Colonies on agar", "setting": "[2]; sodium pyruvate 2.00 g/l with sodium thiosulfate 0.05 g/l", "value": 125, "unit": "CFU"}]}
{"molecule": "catalase", "values": [{"measurement": "recovery", "setting": "[3]", "value": 60, "unit": "%"}]}
{"molecule": "B1", "values": [{"measurement": "Inhibition on gamma-irradiated agar plates", "setting": "[1]; [9]", "value": 3.5, "unit": "mm"}, {"measurement": "Inhibition on agar plates", "setting": "[1]; [9]", "value": 1, "unit": "mm"}, {"measurement": "Inhibition on gamma-irradiated agar plates", "setting": "[1]; [10]", "value": 7, "unit": "mm"}, {"measurement": "Inhibition on agar plates", "setting": "[1]; [10]", "value": 5, "unit": "mm"}, {"measurement": "Inhibition on gamma-irradiated agar plates", "setting": "[1]; [11]", "value": 8, "unit": "mm"}, {"measurement": "Inhibition on agar plates", "setting": "[1]; [11]", "value": 6, "unit": "mm"}, {"measurement": "Inhibition on gamma-irradiated agar plates", "setting": "[1]; [12]", "value": 8.5, "unit": "mm"}, {"measurement": "Inhibition on agar plates", "setting": "[1]; [12]", "value": 7, "unit": "mm"}, {"measurement": "Inhibition on gamma-irradiated agar plates", "setting": "[1]; [13]", "value": 2, "unit": "mm"}, {"measurement": "Inhibition on agar plates", "setting": "[1]; [13]", "value": 0.5, "unit": "mm"}, {"measurement": "Inhibition on gamma-irradiated agar plates", "setting": "[1]; [14]", "value": 6, "unit": "mm"}, {"measurement": "Inhibition on agar plates", "setting": "[1]; [14]", "value": 4, "unit": "mm"}, {"measurement": "Inhibition on gamma-irradiated agar plates", "setting": "[1]; [15]", "value": 7.5, "unit": "mm"}, {"measurement": "Inhibition on agar plates", "setting": "[1]; [15]", "value": 5, "unit": "mm"}, {"measurement": "Inhibition on gamma-irradiated agar plates", "setting": "[1]; [16]", "value": 8, "unit": "mm"}, {"measurement": "Inhibition on agar plates", "setting": "[1]; [16]", "value": 6, "unit": "mm"}, {"measurement": "Inhibition on gamma-irradiated agar plates", "setting": "[1]; [17]", "value": 1.5, "unit": "mm"}, {"measurement": "Inhibition on agar plates", "setting": "[1]; [17]", "value": 0, "unit": "mm"}, {"measurement": "Inhibition on gamma-irradiated agar plates", "setting": "[1]; [18]", "value": 5.5, "unit": "mm"}, {"measurement": "Inhibition on agar plates", "setting": "[1]; [18]", "value": 2, "unit": "mm"}, {"measurement": "Inhibition on gamma-irradiated agar plates", "setting": "[1]; [19]", "value": 6.5, "unit": "mm"}, {"measurement": "Inhibition on agar plates", "setting": "[1]; [19]", "value": 4, "unit": "mm"}, {"measurement": "Inhibition on gamma-irradiated agar plates", "setting": "[1]; [20]", "value": 7.5, "unit": "mm"}, {"measurement": "Inhibition on agar plates", "setting": "[1]; [20]", "value": 4.5, "unit": "mm"}, {"measurement": "Colonies on gamma-irradiated agar", "setting": "[2]; 80 U/plate", "value": 0, "unit": "CFU"}, {"measurement": "Colonies on agar plates", "setting": "[2]; 80 U/plate", "value": 0, "unit": "CFU"}, {"measurement": "Colonies on gamma-irradiated agar", "setting": "[2]; 150 U/plate", "value": 0, "unit": "CFU"}, {"measurement": "Colonies on agar plates", "setting": "[2]; 150 U/plate", "value": 0, "unit": "CFU"}, {"measurement": "Colonies on gamma-irradiated agar", "setting": "[2]; 300 U/plate", "value": 0, "unit": "CFU"}, {"measurement": "Colonies on agar plates", "setting": "[2]; 300 U/plate", "value": 0, "unit": "CFU"}, {"measurement": "recovery of the applied colony forming units", "setting": "[2]; highest tested concentration of 300 U/plate, not irradiated medium", "value": 0, "unit": "%"}]}
